Entries after “also recorded” stand apart in the source; their conditions may differ.
Key:
LPS = assay: endotoxemia LPS-induced sepsis model, survival; type: in vivo, Balb/c mice; details: 1 mg/kg or 5 mg/kg, 24 hours prior to LPS, vs control IgG (R347)
Protocol: In order to determine the protective effect of anti-O1 antigen antibodies, female mice (Balb/c), aged 6-8 weeks, were sensitized with D-galactose (D-Gal, 12 mg/kg), and subsequently challenged intraperitoneally (ip) with 10-50 ng of LPS 24 hours after anti-O1 antigen antibody administration. Antibody was administered at doses of 0.2 mg/kg, 1 mg/kg, or 5 mg/kg. Mouse survival was monitored up to 6 days post LPS challenge.

[1] = system: highly virulent strain Kp43816 (O1); assay: acute pneumonia model with Kp43816, prophylactic dosing, survival; type: in vivo, Klebsiella pneumoniae; details: 15 mpk, 24 hour prior to challenge
Protocol: In order to determine the efficacy of anti-O1 antigen antibodies in combination with antibiotics, 54H7 was tested in an acute pneumonia models. C57BL/6 mice were inoculated intranasally with 1e4 CFU of highly virulent strain Kp43816 (O1). Anti-K. pneumoniae monoclonal antibody 54H7 at 15 mg/kg and human IgG1 control antibody at 15 mg/kg were given 24 hour prior bacterial challenge (prophylatic dosing). Mouse survival was monitored daily until up to day 14.

purified O1 LPS = assay: Fortebio Octet competitive binding on O1 LPS; parameters: species or system Klebsiella pneumoniae; details: 10 μg/mL, probe pre-bound with KPE33
Protocol: Briefly, after initial binding with 10 μg/mL KPE33, the probe was incubated with antibody mixtures containing 10 μg/mL KPE33 with equal concentrations of 54H7, KPE33, or the control antibody R347.

O1 LPS = assay: Octet binding affinity to O1 LPS; parameters: species or system Klebsiella pneumoniae; details: average, from on-rate and off-rate, read-out: affinity constant (KD) to O1 LPS
Text: In order to reduce potential sequence liabilities for antibody development including potential immunogenicity due to anti-drug antibodies, an unpaired Cysteine in the light chain CDR3 of KPE33 was exchanged with Threonine (T), and somatic mutations in the frameworks 1, 2, and 4 of KPE33 were replaced with germ line residues (as summarized in FIG. 5). CDRs were maintained as wildtype, except for the C107T substitution described above. The optimized KPE33 was named KPE33v2016. […] This platform provides a powerful tool to measure the rate of biomolecular complex formation and complex stability in a more biologically meaningful setting. Briefly, Protein A coated sensors were coated with 2 μg/mL O1 LPS for 10 minutes before being dipped into solution containing 0.2 μg/mL anti-O1 LPS mAbs in Kinetics buffer (ForteBio, dilute 10× to 1× with PBS). Changes in the number of molecules bound to the biosensor caused a shift in the interference pattern that was recorded in real time. […] The affinity constant (KD) of KPE33 and KPE33v2016 to O1 LPS was calculated based on the on-rate and off-rate from Octet sensorgram.
KPE33v2016 was further optimized, thereby creating two new variants—KPE33 H32+L2016(1EQ) and KPE33 H33+L2016(1EQ). Both of these variants contain a Methionine to Isoleucine mutation adjacent to CDRH1, a Tryptophan to Tyrosine mutation in CDRH2, an Aspartate to Glutamate mutation adjacent to CDRH2, Asparagine to Glutamine and Methionine to Leucine mutations in FRH3 and an Aspartate to Asparagine mutation in CDRH3. In addition, KPE33 H32+L2016(1EQ) had four FRH3 residues changed to the germ-line residues, whereas KPE33 H33+L2016(1EQ) only has three of the same FRH3 residues changed to the germ-line. Both of these variants contain the same light chain as KPE33v2016, but with a single Glutamate to Glutamine mutation in residue 1.

[2] = system: K. pneumoniae carbapenem-resistant (CRE) strain Kp1131115 (O1); assay: acute lethal pneumonia model, survival; type: in vivo, Klebsiella pneumoniae; details: C57BL/6 mice, antibody one hour post bacterial challenge, vs human IgG1 control (R347)
Protocol: (§1) In an acute pneumonia model, C57BL/6 mice were inoculated intranasally with 1e4 to 1e8 CFU of the multi-drug resistant Klebsiella pneumoniae carbapenam resistant (CRE) clinical isolate strain KP1131115 (O1). Anti-K. pneumoniae monoclonal antibody KPE33 at 0.2, 1, and 5 mg/kg and human IgG1 control antibody at 5 mg/kg were given one hour post bacterial challenge (therapeutic dosing). Mouse survival was monitored daily until up to day 8.
as §1, with “Additionally, in an” for “In an”, “monoclonal antibodies […] and […]” for “monoclonal antibody KPE33”, “at 0.2” for “at 0.2, 1,”, “and 1” for “and 5”
KPE33 or KPE33-V-2016 were administered at a dose of 6 mg/kg 1 hour post bacterial infection with a Klebsiella pneumoniae carbapenam resistant strain.

Kp8045 Klebsiella = assay: pneumonia model, KPE33 synergy with meropenem; type: in vivo, Klebsiella pneumoniae; details: antibody 1 mpk, meropenem 2.5 mpk, post challenge
Protocol: (§2) The synergy of anti-O1 antigen antibodies and antibiotic was also assessed in the pneumonia and bacteremia mouse models.
(§3) In the pneumonia experiments, C57BL/6 mice were inoculated intranasally with 1e4 to 1e8 CFU of the Kp8045 Klebsiella. (See FIG. 4A.) In the bacteremia experiments, mice were inoculated with Kp8561 Klebsiella. (See FIG. 4B.) Both sub-therapeutic dosage of antibodies (1 mpk for Kp8045 and 2.5 mpk for Kp8561) and meropenem antibiotic (2.5 mpk for Kp8045 and 5 mpk for Kp8561) were administered post bacterial challenge. Mouse survival was monitored daily until up to day 8.

Kp8561 Klebsiella = assay: bacteremia model, KPE33 synergy with meropenem; type: in vivo, Klebsiella pneumoniae; details: antibody 2.5 mpk, meropenem 5 mpk, post challenge
Protocol: as §2, §3

[3] = system: clinical Klebsiella strains; assay: western blot binding to clinical isolates
Protocol: In order to determine if anti-O1 antigen antibodies bind to clinically relevant Klebsiella strains, the binding of KPE33 to clinical isolates was determined by western blot assay. The ability of KPE33 to bind to all of these strains as well as its ability to protect against four different strains in vivo indicate that KPE33 can kill many clinically relevant Klebsiella strains.

[4] = system: Klebsiella pneumoniae of the LPS-O1 serotype; assay: primary screening, binding to whole bacteria
Text: KPA27 and KPE33 were isolated from the peripheral blood of two different immune donors: #487 and #262, respectively. […] KPA27 and KPE33 were isolated from immune donors as IgG2 antibodies.
KPB202 and KPJ4 were isolated from tonsillar B cells of two different donors: T6 (KPB202) and T8 (KPJ4). […] KPB202 and KPJ4 were isolated from donors as IgG1 and IgG2 antibodies, respectively.

B1: 54H7: mouse hybridoma anti-O1 antigen antibody (Ms IgG3), VH SEQ ID NO:47, VL SEQ ID NO:48 (antibody, V domains shown)
VH: QVHLQQPGSELVRPGASVTLSCKASGYTFTNYWMQWVKQRPGQGLEWIGNIYPGSGNTNYDEKFRSKATLTVDTSSSTAYMHLTSLTSEDSAVYYCTRNWNFDYWGQGTTLTVSS
VL: DIQMTQSPSSLSASLGERVSLTCRASQDIGSSLNWLQQEPDGTIKRLIYATSSLDSGVPKRFSGSRSGSEYSLTISSLEAEDFVDYYCLQHTDSPYTFGGGTKLELK
modifications: 54H7 VH; 54H7 VL Amino Acid Sequence
LPS
  survival, endotoxemia model: protects mice
[1]
  survival, Kp43816 pneumonia, monotherapy: significant protection
Purified O1 LPS
  additional binding after initial binding of KPE33: able to show additional binding

B2: KPE33: human anti-K. pneumoniae O1 antigen antibody, VH SEQ ID NO:8, VL SEQ ID NO:9, isolated as IgG2 from donor #262 (antibody, V domains shown)
VH: EVQLVESGGALVQPGGSLRLSCAVSGFIFDDYAIHWVRRAPGKGLEWVSGIAWKSGATNYADSVKGRFAISRDNSKKSMYLQMNSLGTEDTALYYCTRRRASGDDTFYYFDYWGQGTLVTVSS
VL: EIVLTQSPATLSLSPGERATLSCRASQNVNTNLAWYQQRPGQSPRLLIYDASTRAAGLPARFSGSGSGTDFTLTISSLEPEDFAVYYCQQCTNWRYTFGQGTKLEIK
modifications: KPE33 VH Amino Acid Sequence; KPE33 VL Amino Acid Sequence
O1 LPS
  Kd: 5.83 nM
[2]
  survival, lethal pneumonia Kp1131115: protect mice from lethal bacterial challenge; also recorded: dose dependently enhanced survival
Kp8045 Klebsiella
  survival, combination with meropenem, pneumonia Kp8045: significant synergy and better protection than monotherapy
Kp8561 Klebsiella
  survival, combination with meropenem, bacteremia Kp8561: significant synergy and better protection than monotherapy
[3]; Table 8
  binding to clinical isolates: binds not only to a large and diverse group of clinical strains, but also to antibiotic resistant clinically relevant strains
[3]; clinical isolates listed in Table 8 (rows 1-36 CRE, rows 37-134 ESBL, rows 135-184 antibiotic-susceptible)
  binding of KPE33 to clinical Klebsiella strains: Summary of clinical Klebsiella strains which KPE33 binds.
[4]
  binding to bacteria in primary screening: bind to Klebsiella pneumoniae of the LPS-O1 serotype

Source: patent publication US12018068B2, “Anti-O1 antibodies and uses thereof” (priority 2016, dated 2024)
